From article PMC10397247
Blank lines part the entries; values can stand above or below the binder they belong to.

Columns and labels:
[1] = molecular target: T1, 4H2504-AA; experiment: two-hybrid library CCmax;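 further: natural log of median RNA to DNA barcode read ratio; higher means stronger binding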
T1 chain: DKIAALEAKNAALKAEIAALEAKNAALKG

[2] = molecular target: T2, 4H2592-AA; experiment: two-hybrid library CCmax;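 further: natural log of median RNA to DNA barcode read ratio; higher means stronger binding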
T2 chain: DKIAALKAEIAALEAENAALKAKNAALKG

[3] = molecular target: T3, 4H2611-AA; experiment: two-hybrid library CCmax; conditions: mean of both orientations;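 further: natural log of median RNA to DNA barcode read ratio; higher means stronger binding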
T3 chain: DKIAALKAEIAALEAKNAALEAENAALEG

[4] = molecular target: T4, 4H2774-AA; experiment: two-hybrid library CCmax; conditions: mean of both orientations;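 further: natural log of median RNA to DNA barcode read ratio; higher means stronger binding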
T4 chain: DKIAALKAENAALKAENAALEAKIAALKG

[5] = molecular target: T5, 4H3001-AA; experiment: two-hybrid library CCmax; conditions: mean of both orientations
T5 chain: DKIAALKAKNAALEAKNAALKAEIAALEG

[6] = molecular target: T6, 4H3340-AA; experiment: two-hybrid library CCmax
T6 chain: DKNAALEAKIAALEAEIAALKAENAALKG

[7] = molecular target: T7, 4H3381-AA; experiment: two-hybrid library CCmax; conditions: mean of both orientations
T7 chain: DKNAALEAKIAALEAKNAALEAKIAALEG

[8] = molecular target: T8, 4H347-AA; experiment: two-hybrid library CCmax; conditions: mean of both orientations
T8 chain: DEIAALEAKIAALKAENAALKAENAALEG

[9] = molecular target: T9, 4H3493-AA; experiment: two-hybrid library CCmax; conditions: mean of both orientations
T9 chain: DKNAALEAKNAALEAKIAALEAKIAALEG

[10] = molecular target: T10, 4H376-AA; experiment: two-hybrid library CCmax; conditions: mean of both orientations
T10 chain: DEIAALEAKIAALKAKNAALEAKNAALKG

[11] = molecular target: T11, 4H406-AA; experiment: two-hybrid library CCmax; conditions: mean of both orientations
T11 chain: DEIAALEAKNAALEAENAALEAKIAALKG

[12] = molecular target: T12, 4H688-AA; experiment: two-hybrid library CCmax; conditions: mean of both orientations
T12 chain: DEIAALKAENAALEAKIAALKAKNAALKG

[13] = molecular target: T13, 4H963-AA; experiment: two-hybrid library CCmax; conditions: mean of both orientations
T13 chain: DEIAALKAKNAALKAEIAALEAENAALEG

[14] = molecular target: T14, 4H1544-bA; experiment: two-hybrid library CCNG1
T14 chain: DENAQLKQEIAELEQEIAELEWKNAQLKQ

[15] = molecular target: T15, 4H1710-bA; experiment: two-hybrid library CCNG1
T15 chain: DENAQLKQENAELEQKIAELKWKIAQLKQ

[16] = molecular target: T16, 4H1899-bA; experiment: two-hybrid library CCNG1
T16 chain: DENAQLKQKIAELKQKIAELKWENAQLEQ

[17] = molecular target: T17, 4H1985-bA; experiment: two-hybrid library CCNG1
T17 chain: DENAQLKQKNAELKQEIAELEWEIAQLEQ

[18] = molecular target: T18, 4H3162-bA; experiment: two-hybrid library CCNG1
T18 chain: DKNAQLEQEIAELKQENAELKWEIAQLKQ

[19] = molecular target: T19, 4H3175-bA; experiment: two-hybrid library CCNG1
T19 chain: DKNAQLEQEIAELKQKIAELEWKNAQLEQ

[20] = molecular target: T20, 4H3277-bA; experiment: two-hybrid library CCNG1
T20 chain: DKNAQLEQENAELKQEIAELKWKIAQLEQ

[21] = molecular target: T21, 4H3298-bA; experiment: two-hybrid library CCNG1
T21 chain: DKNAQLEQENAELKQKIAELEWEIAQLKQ

[22] = molecular target: T22, 4H3462-bA; experiment: two-hybrid library CCNG1
T22 chain: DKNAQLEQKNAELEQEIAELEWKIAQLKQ

[23] = molecular target: T23, 4H3497-bA; experiment: two-hybrid library CCNG1
T23 chain: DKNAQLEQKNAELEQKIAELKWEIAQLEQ

[24] = molecular target: T24, 4H3613-bA; experiment: two-hybrid library CCNG1
T24 chain: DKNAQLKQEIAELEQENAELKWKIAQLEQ

[25] = molecular target: T25, 4H3628-bA; experiment: two-hybrid library CCNG1
T25 chain: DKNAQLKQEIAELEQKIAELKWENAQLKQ

[26] = molecular target: T26, 4H3817-bA; experiment: two-hybrid library CCNG1
T26 chain: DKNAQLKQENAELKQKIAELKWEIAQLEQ

[27] = molecular target: T27, 4H3858-bA; experiment: two-hybrid library CCNG1
T27 chain: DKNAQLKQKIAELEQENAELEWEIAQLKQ

[28] = molecular target: T28, 4H3926-bA; experiment: two-hybrid library CCNG1
T28 chain: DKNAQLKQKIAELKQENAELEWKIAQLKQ

[29] = molecular target: T29, 4H3974-bA; experiment: two-hybrid library CCNG1
T29 chain: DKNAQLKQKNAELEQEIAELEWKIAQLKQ

[30] = molecular target: T30, 4H570-bA; experiment: two-hybrid library CCNG1
T30 chain: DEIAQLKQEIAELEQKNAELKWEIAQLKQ

[31] = molecular target: T31, 4H591-bA; experiment: two-hybrid library CCNG1
T31 chain: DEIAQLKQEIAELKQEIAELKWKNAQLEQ

[32] = molecular target: T32, 4H626-bA; experiment: two-hybrid library CCNG1
T32 chain: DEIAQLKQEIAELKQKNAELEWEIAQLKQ

[33] = molecular target: T33, 4H850-bA; experiment: two-hybrid library CCNG1
T33 chain: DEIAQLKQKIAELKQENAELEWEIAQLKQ

[34] = molecular target: T34, 4H906-bA; experiment: two-hybrid library CCNG1
T34 chain: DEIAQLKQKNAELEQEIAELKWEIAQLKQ

[35] = molecular target: T35, 4H3601-bA; experiment: two-hybrid library CCNG1
T35 chain: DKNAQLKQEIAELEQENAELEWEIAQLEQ

[36] = molecular target: T36, 4H3907-bA; experiment: two-hybrid library CCNG1
T36 chain: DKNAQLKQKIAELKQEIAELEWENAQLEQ

[37] = molecular target: T37, 4H4038-bA; experiment: two-hybrid library CCNG1
T37 chain: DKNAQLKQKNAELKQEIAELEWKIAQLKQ

[38] = molecular target: T38, P3A-bA; experiment: two-hybrid library CCNG1
T38 chain: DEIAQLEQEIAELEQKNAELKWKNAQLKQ

[39] = molecular target: T39, P4A-bA; experiment: two-hybrid library CCNG1
T39 chain: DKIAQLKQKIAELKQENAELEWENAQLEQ

[40] = molecular target: T40, P5A-bA; experiment: two-hybrid library CCNG1
T40 chain: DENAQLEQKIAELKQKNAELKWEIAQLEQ

[41] = molecular target: T41, P6A-bA; experiment: two-hybrid library CCNG1
T41 chain: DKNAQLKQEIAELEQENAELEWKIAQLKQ

[42] = molecular target: T42, P7A-bA; experiment: two-hybrid library CCNG1
T42 chain: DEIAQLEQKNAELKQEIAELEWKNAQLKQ

[43] = molecular target: T43, P8A-bA; experiment: two-hybrid library CCNG1
T43 chain: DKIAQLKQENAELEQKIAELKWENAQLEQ

[44] = molecular target: T44, P9A-bA; experiment: two-hybrid library CCNG1
T44 chain: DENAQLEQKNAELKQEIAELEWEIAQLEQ

Binder: DENAQLKQEIAELEQEIAELEWKNAQLKQ [4H1544-bA]
- interaction score [14]: 0.00288
- interaction score [15]: 2.06
- interaction score [16]: 1.52
- interaction score [17]: 0.274
- interaction score [18]: 0.788
- interaction score [19]: -0.0402
- interaction score [20]: 0.243
- interaction score [21]: 0.792
- interaction score [22]: 0.455
- interaction score [23]: 0.215
- interaction score [24]: 0.572
- interaction score [25]: 0.77
- interaction score [26]: 0.78
- interaction score [27]: -0.357
- interaction score [28]: 0.0381
- interaction score [29]: 0.562
- interaction score [30]: -0.0902
- interaction score [31]: -0.632
- interaction score [32]: -0.46
- interaction score [33]: 0.322
- interaction score [34]: -0.806

Binder: DKIAQLKQKNAELKQKNAELKWKIAQLKQ [P2A-bA]
- interaction score [38]: -0.686
- interaction score [39]: 0.0163
- interaction score [40]: -0.638
- interaction score [41]: 0.426
- interaction score [42]: -0.916
- interaction score [43]: -0.64
- interaction score [44]: 0.702

Continued, values first:

- interaction score [1]: -0.729
- interaction score [2]: -1.07
- interaction score [3]: -2.59
- interaction score [4]: -1.42
- interaction score [5]: -1.38
- interaction score [6]: -1.51
- interaction score [7]: -0.947
- interaction score [8]: -1.77
- interaction score [9]: -1.14
- interaction score [10]: -1.78
- interaction score [11]: 0.644
- interaction score [12]: 0.978
- interaction score [13]: -0.737
Binder: DKIAALEAKNAALKAEIAALEAKNAALKG [4H2504-AA]

- interaction score [35]: -0.859
- interaction score [36]: -1.15
- interaction score [37]: -1.28
Binder: DKNAQLKQEIAELEQENAELEWEIAQLEQ [4H3601-bA]
